Molecular target: T1, BIN1 SH3 domain (UniProt O00499 513-593)
T1 construct: C-terminal SH3 domain of bridging integrator-1 (BIN1, amphiphysin 2); printed residues E556, E557, W562, F588 fit the 593-residue BIN1 isoform 1; Used 15N-labelled in the titrations and relaxation experiments; Construct limits, host and tags are in Malki et al., 2017; PDB 5i22 is a cited NMR structure of BIN1 SH3 in a complex, used as the starting point of the docking; also called SH3 domain of …
T1 sequence: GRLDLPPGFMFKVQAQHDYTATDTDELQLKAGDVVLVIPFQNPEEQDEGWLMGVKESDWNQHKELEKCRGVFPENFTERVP
Assay: NMR titration; 70 μM 15N-BIN1 SH3 titrated with unlabeled Tau (210–240) peptides (35 to 840 μM); 1H,15N HSQC chemical shift changes; 50 mM phosphate buffer pH 7.3, 20°C; Kd averaged over 7 resonances
Conditions: both partners purified

Kd: 429 ± 94 µM
B1: Tau (210–240) peptide with K224 and K225 mutated into alanines (peptide, UniProt P10636-8 210-240, looked up)
peptide: SRTPSLPTPPTREPAAVAVVRTPPKSPSSAK
notes: Tau residues 210-240 with K224A and K225A; probably as m2; also called the mutated peptide
